Results published in the DeepSol protein solubility set.

Test: soluble on expression in E. coli; label from the status in PepcDB or PDB records

| Sequence | soluble on expression in E. coli |
| --- | --- |
| GPGSMLRCNISQRVPTHPVVSVKSGLVFERSLVEKYVDEHGRCPVTGDPLRKEDLITAQGAAPDASIASSGSLGAASVPTLLERLQVEWEGVALEQFSLRQQVTQLQLELAHALQQYDAACRVIARLSKELDSLRGGKAVAAEETDKGPAVVVVPAPVLRRMDAAEAAERQARKQRKAAAGSTAATPSQLTEEAQWVATPSSSASASSARSAVRVAAAADASSSGVFVSAVTGDHAIVRYSPDGFSEEARGIGHTATVHTLASQPGDILLSAAEDLTVRVWSTKGAALTVMHTLRYASGVVAMSQRTVGGAYMLCGAGDGVLTLSDLESGAHVVATAPLTLDTTSGALTCVELHPYASLAAVAFQPTELQLWDAREMRADTFISHVRGTAPRTHICSASFSADCVSLAAGLTDGSVYVWDLRQVLAPVAVLPPSADAVPATVRYAPDGRSLVVGGHGVTLYDCARLSASSTAVEAVATAGLKASAVCDVCWTTSGTDVLCGSVDGVVRLYSTAAGAT | soluble |
| MPCSFAPGFLALTVAIHPGTTAQPSQQSPRAFPFFRPVLAQLMKHRVAQESTRRWLDRIIQIIKYAYCQKLRRHFCQATLWKMIQLIVNGQSQLVPSPDSGTDSGTTNDARLNIRQLLEHMGLQGKRIAVERNGEIVPRSQFDQPMLASGDKLEIVVAVGGGLEHHHHHH | not soluble |
| MGSDKIHHHHHHMALFEGYERRIDGINTVLKKYGMNSIEDAKKVCDEKGINVYDIVRSIQPICFENACWAYTLGAAIAIKNGCTSASDAAKNIGEGLQAFCIPGSVADDRKVGLGHGNLGAMLLSEDAKCFAFLAGHESFAAAEGAIGIAKSANKVRKEPLRVILNGLGKDAAQIISRINGFTYVQTQFDYYTGELKIVKETAYSKGERAEVRCFGADDVREGVAIMHHEGVDVSITGNSTNPTRFQHPVAGTYKKECFEMGKKYFSVASGGGTGRTLHPDNMAAGPASYGMTDTMGRMHSDAQFAGSSSVPAHVDMMGLIGMGNNPMVGATVAVAVAIEEAMK | not soluble |
| MSLSKLPLLPTTVIGSYPRPKWLRESIRLHKAGKMSNEDLQEAFNDAVIAVFQDHYKAGVDVPTDGEVRRDEMVEFFAERIKGFKFYGPVRVWGTAYYRKPSVVSKIEYREPMLVDEFTFAKSVSYTDNLKITITGPYTIAEWSYNEYYRNKKDLVFDLAKAINQEIKNLVEAGAKIIQIDEPALHTRKEDVSWGVEAVNEAVKGVNAKLVMHICYGDYSFVAPYFNEIKVDQINFALKIYNYKPLELLKKYGFDKELGAGVVDVHNRKVETSEEVANDIRKILEYFPPEKVWINPDCGLKLLSRKIAYQKLVSMVEGTKVVREELKRKGYSVDEGHHHHHH | not soluble |
| MKKGSRHNFVVSQENWTLHRKGYQDQRRHQEKVKEAIRKNLPDLVSEENIIMSNGREVIKIPIRSLDEYKIRYNYDKNKHVGQGDGDSQVGDVIARDPSAGQQGPGKGQGAGDQPGEDYFEAEVSILELEELLFRELELPNLQQKEEDHLVVEHIEFNDIRKKGLMGNIDKRRTILSAIKRNALEGRPGLIPIYNDDLRFKTWNEVVRPESKAVVLAMMDTSGSMGRWEKYMARSFFFWMTRFLRTKYETVDIEFIAHHTEAKVVSEEDFFSKGESGGTICSSAYRKALELINEKYDPARYNIYPFHFSDGDNLTSDNARCLKLVHELMESSSMFGYGEVNQYSRHSTLMNAYKNLKDPRFRSYVLKEKGDVYRAMKTFFKKEEEAVSAAALEHHHHHH | soluble |
| MVESWALTTPPIDIVNQYLFFIKRKTNYMATYYYALASQKFLLEEEPFEEVLKERRRDYGEKNKEIDFWQVIQPAFLNAPELAEAKAKAPEKNVAIVSTNKSFIVWVKLRLEYVLTGEFEAPSDAIPDPLASLDLEHHHHHH | not soluble |
| MEIDELPSGTQDQKPDIDMNEIVGTHDILMLCFDTLRYDVSVAEEASGGTPVLNSCGNGWEKRHAPGNFTYPSHFAIFAGFLPSPAEPHMLRNRKWLFFPFQAGTGRIPPEGSYAFKEATFVQSLAQVGYETICIGGVNFFSKRNDIGRVFPGYFNKSYWLPTFGCTDKNSAANQVDFAVDKLEKYPADRKVFMYINFSAIHYPNCHYVEGKKKDDKESHAAALRYVDSQLPRLFEAFRRRSDTLVIALSDHGTCYGEDGYEYHCISHEKVYTVPYKHFILRKLEHHHHHH | soluble |
| MKNKGLLLKVSTGLAAVSFLFSEYLFKISFKRVDHVPETSQEKQKYAASYWEYVDWFRRINKEHWTFQTKNETERMSAYFIPSKEENSKKVVIIAHGYKGNGETMSSYAKMFYEMGFNVLLPDDRGHGQSMGEYISFGWLDRLDYLQWLKKIIKRVGPKSEILLFGVSMGASTVEMLSGEDLPSQVKCVIADCGYSSIDEEMTFLLKHHYHLPKYPFYPLVSTINRYRLGYYLGDVSSVEQLKKNKLPIFFIHGENDDYVPSYMSLENYEATTAAKELWIVNNATHAESYWLDPLEYKKRIKDFLNKYFNDKN | not soluble |
| MGSDKIHHHHHHMLLIDKLSNHENFTNTEQRIADYILKNITDIPPMNIDKLSKVTYTSHSAVVRLTKKLGFEGFKDFKVAISEAVYSQTTNMNSVDANFPFDSNDSVSTISKKVAELSVESIQRTFAQLDERLIEEAANTIAKSERIFLFAQGDSQIRARSFQNKLVKLNRFAILGEEYSDEDWTAANLTKKDCAIFISYGGRISQYERMLTHFSENKIPSVVLTGNQKSPLIRLAQTAIVTTQNEYDFLKISTFSSQITFEYLLDTIFSVIYAKEYQQNIINLKNKFNLIQRGTLSEGLAKEHDSK | not soluble |
| MSLVDLVTEAKSSGEGVTSPYSRTEHCENIHEYRCDTRVGVIGIDVSKEHLVTSKGRVRKFTNNEKGYEEILTMKPNIIVIEPTGVYSTRPCQYFKERGVKVLLVSLAMERKGRKGKENRFLRRRKTEGHHHHHH | not soluble |
| MHQVYVDIIVDAIIEQYQTEENFYSAYQIQAADWQAWKEGQFGLDNEVMQKIKNLFTDYEWMLTQKILRQTILFPEKRNLAVSEYKRLKTTIAKKWLQSDLGVVELIPNNKQEQEIAAGYIDLKVTLAYGEWGFDDIITFRLPATIQRQLEGSKVELLDWVNENLMDTYVGE | not soluble |
| MAAAGEEYSSDKIEERSLAAIDSMIDPDISGPMRHIVVKAIHAAGDFAIAPLIRYSDGFFKSMLAKLKEGCTIICDSEMVRAGIYSRPVLERNRVVCYLNDVRSKEMADVNGITRSAAGIRIAMQDHRNSVIVIGNAPTALLEAMRMIEENGWYDIPIVGIPVGFINASKAKEGLVSSHIEYISVEGHRGGSPIAASIVNGFGRFLA | soluble |
| MGSDKIHHHHHHMSNEHQLLVGLLKKLKDDALILPTLPEVAMRVQEVVGRPDSSLKQVAEIIGQDAAISARIIKVANSALYSRGVPAENINSAVTRIGLTQIKSIATSVAMEQLFISTNEMVWEVMDEVWRTSIDVTAAACSLLQIYNKKHPGSGLNYDTLTLAGLVHNIGALPVLTEAEAHPEMFTTIEHLRSLVRKMQGPIGRAVLKSWDFAPEVMEVVERWADLPYLGDHVSYLDFIRAAAFYTGELRAGNELEQRLDVFVKRGLPVSPEDLGSDAFLDSYHSIKASYE | not soluble |
| GSHMAKEEIIWESLSVDVGSQGNPGIVEYKGVDTKTGEVLFEREPIPIGTNNMGEFLAIVHGLRYLKERNSRKPIYSNSQTAIKWVKDKKAKSTLVRNEETALIWKLVDEAEEWLNTHTYETPILKWQTDKWGEIKADYGRK | soluble |
| MDQPWNANIHYDALLDAMVPLGTQCVLDVGCGDGLLAARLARRIPYVTAVDIDAPVLRRAQTRFANAPIRWLHADIMTAELPNAGFDAVVSNAALHHIEDTRTALSRLGGLVTPGGTLAVVTFVTPSLRNGLWHLTSWVACGMANRVKGKWEHSAPIKWPPPQTLHELRSHVRALLPGACIRRLLYGRVLVTWRAPVLEHHHHHH | not soluble |
| MNSILICGGAGYIGSHAVKKLVDEGLSVVVVDNLQTGHEDAITEGAKFYNGDLRDKAFLRDVFTQENIEAVMHFAADSLVGVSMEKPLQYYNNNVYGALCLLEVMDEFKVDKFIFSSTAATYGEVDVDLITEETMTNPTNTYGETKLAIEKMLHWYSQASNLRYKIFRYFNVAGATPNGIIGEDHRPETHLIPLVLQVALGQREKIMMFGDDYNTPDGTCIRDYIHVEDLVAAHFLGLKDLQNGGESDFYNLGNGNGFSVKEIVDAVREVTNHEIPAEVAPRRAGDPARLVASSQKAKEKLGWDPRYVNVKTIIEHAWNWHQKQPNGYEK | soluble |
| MELKEELLRGIYGFGFEKPSAIQKSAVAPCTTGKDVTIQSQAGSGKTVISLIDILQGIDCEDAHLQVILLAPQRGMAQRAHEQLKSLGRNLNVNATCLGFDTTAENDKISHVLMGTPKDFLSNIPSDTSRIKMFVLDEADEMLSKGFKDQIYEVFRSMPQDVQVVLLSATMPSEVLDVTNRFMRDPIRILVKKDELTLEGIRQFYINVQKDEWKFNCLCDLLKTSRETQALIFCNTRRRVTQLTEQLMSIPIKVSCFHGNMEHNEREDMVKDFNSRNTRVLVTTDLMARGMNIRKSLIINYDVSGNMENYMLRNGRQGNFGSKGLPISFFTENDISDLKKIENHYSTRIEEMPESFLEYLDEN | not soluble |
| MGEKAFKRPNVLSTIGAFGYRAAVFRNVLEAAKLDPSIYYTFISGPEIDPEQFSKVPENVEFTGFTENPFPYYKGSDLVITAGGHGTIMESLAFGLPILSFPDEKHAEQENNASVLEEAGYGKRMSYLTPPEVILACIREIFEDENYSKKTRRLMELAEVLEHHHHHH | soluble |
| DSYYNGHQDGDAIAYLILANKLIHELCPDAITIAEEVSGMPGLALPLADGGYGFDYRLAMNIPDFWIKLIKEHRDEDWNPGDIWYQLTNRRQEEKTISYAESHDQALVGDKTIIFRLIDADMYWYMNKQSCVHSVDRGIALLKMIRLFTATTMNGGYLNFMGNEFGHPEWIDFPREGNGWSYKYARRQWSLADSPFLRYAGLHLFDQDMIAMIRSVESFHKLPLREYWLKREEQVICYGRGDFFFVFNFHPERSYSDYPIPLPAGKYSVAMSTDARKYEGFGRVDEWVEHFTLPDGSKDRFTHEQYLNLYLPARSALVLKLAE | not soluble |
| MSLEGYTVIIKTGNEDLDRRLTGLPFPALIMIEGDHGTGKSVLAAQICYGLLISDKKGYVITTEQTTKDYLVKMRDVKINLIPFFIKGSLGVAPLNTNKFNWNSDLANKILDLIIDFVKKRKNIEFLIIDSLSVLATFAEERQILQFMKESRVLVDLGKLILFTIHPDVFSEEIKSRITSIVDVYFKLSAVTIGGRRIKVLERVKTVGGIQGSDTISFDIDPALGIKVIPLSLSRAEGHHHHHH | soluble |
| MGSDKIHHHHHHMEAKWLEDFLSLADTKSFSRAARHRHLTQSAFSRRIAALETWMDAKLVDRSINPITLTPAGQMFRGLAADILRSMYAARNLVNGYDQFAASDQVVRFAVAHTLVFTLFPEWLKQLNGEVGHVTARVNAVNVPEGVQQLVEGECDLLLGYHHPQLPIVLDPNHFPFVTLGVERILPVSTPDAHGRPVFELPGAPDAPLPLLAYSSGAFLGNVVEMLLLNASESYALHRCFETHMSEALKGMVVAGHGIGWLPESCVAKELAEGSLVRAGSADWITELEIRLYRSARKRGLAAEQLWTYIMNRPRTAADGLVAAEPGAPAVRIARRSVGGSR | not soluble |
| MGHHHHHHSHKKHNQGKEAAQRVLSQIDVAQKKLQDVSMKFRLFQKPANFEQRLQESKMILDEVKMHLPALETKSVEQEVVQSQLNHCVNLYKSLSEVKSEVEMVIKTGRQIVQKKQTENPKELDERVTALKLHYNELGAKVTERKQQLEKCLKLSRKMRKEMNVLTEWLAATDMELTKRSAVEGMPSNLDSEVAWGKATQKEIEKQKVHLKSITEVGEALKTVLGKKETLVEDKLSLLNSNWIAVTSRAEEWLNLLLEYQKHMETFDQNVDHITKWIIQADTLLDESEKKK | soluble |
